# Laboratory results published in patent US11634477 (dated 2023).
# Legend:
# [1] = target: SARS-CoV-2 RBD (SARS-CoV-2, UniProt P0DTC2); experiment: ELISA
# [2] = target: SARS-CoV RBD (SARS-CoV, UniProt P59594); experiment: ELISA
Binder,EC50 [1] [ng/mL],EC50 [2] [ng/mL]
"C009 (antibody, V domains shown) VH: not shown VL: QSALTQPPSASGSPGQSVTISCTGTSSDVGGYNYVSWYQQHPGKAPKLMIYEVSKRPSGVPDRFSGSKSGNTASLTVSGLQAEDEAEYYCSSDAGSNNVVFGGGTKLTVL",1.8,> 1000
"C164 (antibody, V domains shown) VH: EVQLVESGGGLVQPGGSLRLSCAASGFSVSTKYMTWVRQAPGKGLEWVSVLYSGGSDYYADSVKGRFTISRDNSKNALYLQMNSLRVEDTGVYYCARDSSEVRDHPGHPGRSVGAFDIWGQGTMVTVSS VL: QSALTQPASVSGSPGQSITISCTGTSNDVGSYTLVSWYQQYPGKAPKLLIFEVTKRSSGISNRFSGSKSGNTASLTISGLQGEDEADYYCCSYAGASTFVFGGGTKLTVL",2.06,> 1000
"C141 (antibody, V domains shown) VH: not shown VL: NFMLTQPHSVSESPGKTVTISCTGSSGSIASNYVQWYQQRPGSAPTTVIYEDNQRPSGVPDRFSGSIDSSSNSASLTISGLKTEDEADYYCQSYDSSNWVFGGGTKLTVL",1.71,> 1000
"C138 (antibody, V domains shown) VH: EVQLVESGGGLVQPGGSLRLSCAASGFTFSTYWMSWVRQPPGKGLEWVANIKQDGSEKYYVDSVKGRFTISRDNAKNSLYLQMNSLRADDTAVYYCAGGTWLRSSFDYWGQGTLVTVSS VL: NFMLTQPHSVSESPGKTVTISCTGSSGSIASNYVQWYQQRPGSAPTTVIYEDNQRPSGVPDRFSGSIDSSSNSASLTISGLKTEDEADYYCQSYDSSNWVFGGGTKLTVL",2.94,> 1000
"C116 (antibody, V domains shown) VH: QVQLVESGGGVVQPGRSLRLSCAASGFTYSTYAMHWVRQAPGKGLEWVAFISYDGSNKYYADSVKGRFTISRDNSKNTLYLQMNSLRAEDTAVYYCARDFYHNWFDPWGQGTLVTVSS VL: NFMLTQPHSVSESPGKTVTISCTGSSGSIASNYVQWYQQRPGSAPTTVIYEDNQRPSGVPDRFSGSIDRSSNSASLTISGLKTEDEADYYCQSYDSGNHWVVFGGGTRLTVL",37.6,> 1000
"C005 (antibody, V domains shown) VH: QVQLVQSGPEVKKPGTSVKVSCKASGFTFTSSAVQWVRQARGQRLEWIGWIVVGSGNTNYAQKFQERVTITRDMSTSTAYMELSSLRSEDTAVYYCAAPHCSGGSCLDAFDIWGQGTMVTVSS VL: not shown",4.41,> 1000
"C130 (antibody, V domains shown) VH: QVQLVQSGAEVKKPGASVKVSCKASGYTFTNYYMHWVRQAPGQGLEWMGIINPSGGSTGYAQKFQGRVTMTRDTSTSTVYMELSSLRSEDTAVYYCARSRPTPDWYFDLWGRGTLVTVSS VL: SYELTQPPSVSVAPGKTARITCGGNNIGSKSVHWYQQKPGQAPVLVIYYDSDRPSGIPERFSGSNSGNTATLTISRVEAGDEADYYCQVWDSSSDHPGVVFGGGTKLTVL",2.05,> 1000
"C215 (antibody, V domains shown) VH: EVQLLESGGGLVQPGGSLRLSCAASGFTFSSYAMSWVRQAPGKGLEWVSAITDSGDGTFYADSVKGRFTISRDNSKNTLYLQMNSLRAEDTAVYYCASEEDYSNYVGWFDPWGQGTLVTVSS VL: not shown",5.33,17.9
"C117 (antibody, V domains shown) VH: QVQLVESGGGVVQPGRSLRLSCAASGFTFSTYAMHWVRQAPGEGLEWVAVISYDGSNTYYADSVKGRFTISRDNSKNTLYLQMNSLRAEDTAVYYCARDPIWFGELLSPPFVHFDYWGQGTLVTVSS VL: QSVLTQPPSVSAAPGQKVTISCSGSSSNIGNNLVSWYQQLPGTAPKLLIYENNKRPSGIPDRFSGSKSGTSATLGITGLQTGDEADYYCGAWDSSLSAGGVYVFGTGTKVTVL",5.38,> 1000
"C216 (antibody, V domains shown) VH: EVQLVESGGGLVQPGGSLRLSCAASGFTFSSYDMHWVRQATGKGLEWVSAIGTAGDTYYPDSVKGRFTISRENAKNSLYLQMNSLRAGDTAVYYCARDRGSSGWYGWYFDLWGRGTLVTVSS VL: not shown",9.53,> 1000
"C123 (antibody, V domains shown) VH: EVQLVESGGGLIQPGGSLRLSCAASGVTVSRNYMSWVRQAPGKGLEWVSVIYSGGSTYYADSVKGRFTISRDNSKNTLYLQMNSLRAEDTAVYYCARDLSAAFDIWGQGTMVTVSS VL: DIQLTQSPSFLSASVGDRVTITCRASQGISSYLAWYQQKPGKAPKLLIYAASTLQSGVPSRFSGSGSGTEFTLTISSLQPEDFATYYCQQLNSYPPAFGQGTRLEIK",1.92,> 1000
"C154 (antibody, V domains shown) VH: QVQLVESGGGVVQPGRSLRLSCAASGFTFSRYGMHWVRQAPGKGLEWVAVMSYDGSSKYYADSVKGRFTISRDNSKNTLCLQMNSLRAEDTAVYYCAKQAGPYCSGGSCYSAPFDYWGQGTLVTVSS VL: DIQMTQSPSSLSASVGDRVTITCQASQGISNYLNWYQQKPGKAPKLLIYDASNLETGVPSRFSGSGSGTDFTFTISSLQPEDIATYYCQQYDNLPITFGQGTRLEIK",2.92,10.7
"C121 (antibody, V domains shown) VH: not shown VL: QSALTQPASVSGSPGQSITISCTGTSSDVGSYNLVSWYQQHPGKAPKLMIYEGSKRPSGVSNRFSGSKSGNTASLTISGLQAEDEADYYCCSYAGSSTLVFGGGTKLTVL",2.85,> 1000
"C150 (antibody, V domains shown) VH: EVQLVESGGGLVQPGGSLRLSCVASGFTFSSYWMHWVRQVPGKGPVWVSHINSEGSSTNYADSVRGRFTISRDNAKDTLYLQMNNLRAEDTAVYYCARPTAVAAAGNYFYYYGMDVWGQGTTVTVSS VL: QSALTQPASVSGSPGQSITISCTGTSSDVGYYNFVSWYQQHPGKAPKLMIYEVSNRPSGVSNRFSGSKSGNTASLIISGLQAEDEADYYCSSYRSSSTLVFGGGTKLTVL",8.11,> 1000
"C103 (antibody, V domains shown) VH: QVQLQQWGAGLLKPSETLSLTCAVSGGSLSGFYWTWIRQPPGKGLEWIGETNHFGSTGYKPSLKSRVTISVDMSRNQFSLKVTSVTAADTAVYYCARKPLLYSDFSPGAFDIWGQGTMVTVSS VL: EIVLTQSPGTLSLSPGERATLSCRASQTVTANYLAWYQQKPGQAPRLLIYGASKRATGIPDRFSGSGSGTDFTLSISRLEPEDFAVYYCQQYTTTPRTFGGGTKVEIK",3.77,> 1000
"C104 (antibody, V domains shown) VH: QVQLQQWGAGLLKPSETLSLSCAVYGGSLSGYYWSWIRQPPGKGLEWIGEINHFGSTGYNPSLKSRVTISVDTSKSQFSVKLSSVTAADTAVYYCARKPLLYSNLSPGAFDIWGQGTMVTVSS VL: EIVLTQSPGTVSLSPGERATLSCWASQSVSASYLAWYQQKPGQAPRLLIYGASSRATGIPDRFSGSGSGTDFTLTISRLEPEDFAVYYCQQYGTTPRTFGGGTKVEIK",8.31,> 1000
"C211 (antibody, V domains shown) VH: EVQLVESGGGLVQPGGSLRLSCAASEFTVSSNYMSWVRQAPGKGLEWVSVIYSGGSTFYADSVKGRFTISRDNSKNTLYLQMNSLRPEDTAVYYCARDYGDFYFDFWGQGTLVTVSS VL: EIVMTQSPATLSVSPGERATLSCRASQSVSSNLAWYQQKPGQGPRLLIYGASTRATGIPARFSGSGSGTEFTLTISSLQSEDFAVYYCQQYNNWPRTFGQGTKVEIK",2.82,> 1000
"C008 (antibody, V domains shown) VH: EVQLVESGGGVVQPGRSLRLSCAASGFTFSSYGMHWVRQAPGKGLEWVTVISYDGRNKYYADSVKGRFTISRDNSKNTLYLQMNSLRAEDTAVYYCAREFGDPEWYFDYWGQGTLVTVSS VL: not shown",4.63,> 1000
"C107 (antibody, V domains shown) VH: QVQLVQSGAEVKKPGASVRVSCKASGYTFTSYGFSWVRQAPGQGLEWMGWISAYNGNTNFAQKLQGRVTMTTDTSTSTAYMELRSLRSDDTAVYYCARGEAVAGTTGFFDYWGQGTLVTVSS VL: not shown",11.6,> 1000
"C030 (antibody, V domains shown) VH: EVQLVESGGGVVQPGRSLRLSCAASGFTFSSYGMHWVRQAPGKGLEWVAVISYDGSNKYYADSVKGRFTISRDNSKNTLYLQMNSLRAEDTAVYYCAKASGIYCSGGNCYSYYFDYWGQGTLVTVSS VL: not shown",2.89,> 1000
"C022 (antibody, V domains shown) VH: QVQLQESGPGLVKPSETLSVTCTVSGGSISSSRYYWGWIRQPPGKGLEWIGSIYYSGSTYYNPSLKSRVTISVDTSKNQFSLKLSSVTAADTAVYYCARHAAAYYDRSGYYFIEYFQHWGQGTLVTVSS VL: DIQMTQSPSTLSASVGDSVTITCRASQSISSWLAWYQQKPGKAPKLLIYKASSLESGVPSRFSGSGSGTEFTLTISSLQPDDFATYYCQQYNNYRYTFGQGTKLEIK",2.4,5.99
"C201 (antibody, V domains shown) VH: EVQLVESGGGLVQPGRSLRLSCAASGFTFDDYAMHWVRQAPGKGLEWVSGISWNSGSIGYADSVKGRFTISRDNAKNSLYLQMNSLRAEDTALYYCVKGVEYSSSSNFDYWGQGTLVTVSS VL: IRMTQSPSSVSASVGDRVTITCRASQGISSWLAWYQQKPGKAPKLLIYVESSLQSGVPSRFSGSGSGTDFTLTISSLQPEDFATYYCQQANSFPLTFGGGTKVEIK",2.98,> 1000
